Reference: US20190134153A1, “IMMUNOMODULATORY EFFECT OF INHALED KINASE INHIBITOR PEPTIDES IN LUNG” (MOERAE MATRIX, INC., priority 2017, published 2019)

Assays:
Assay in all cases: Kinase Profiling Assay
Type in all cases: biochemical
Settings in all cases: 100 μM
[1] = target: Met(D1246H)(h) (Homo sapiens, UniProt P08581, D1228H)
[2] = target: Rsk4(h) (Homo sapiens, UniProt Q9UK32)
[3] = target: cSRC(h) (Homo sapiens, UniProt P12931)
[4] = target: MAPKAP-K3(h) (Homo sapiens, UniProt Q16644)
[5] = target: T1, TAO1(h) (Homo sapiens, UniProt Q7L7X3)
T1 sequence (Q7L7X3 1-1001): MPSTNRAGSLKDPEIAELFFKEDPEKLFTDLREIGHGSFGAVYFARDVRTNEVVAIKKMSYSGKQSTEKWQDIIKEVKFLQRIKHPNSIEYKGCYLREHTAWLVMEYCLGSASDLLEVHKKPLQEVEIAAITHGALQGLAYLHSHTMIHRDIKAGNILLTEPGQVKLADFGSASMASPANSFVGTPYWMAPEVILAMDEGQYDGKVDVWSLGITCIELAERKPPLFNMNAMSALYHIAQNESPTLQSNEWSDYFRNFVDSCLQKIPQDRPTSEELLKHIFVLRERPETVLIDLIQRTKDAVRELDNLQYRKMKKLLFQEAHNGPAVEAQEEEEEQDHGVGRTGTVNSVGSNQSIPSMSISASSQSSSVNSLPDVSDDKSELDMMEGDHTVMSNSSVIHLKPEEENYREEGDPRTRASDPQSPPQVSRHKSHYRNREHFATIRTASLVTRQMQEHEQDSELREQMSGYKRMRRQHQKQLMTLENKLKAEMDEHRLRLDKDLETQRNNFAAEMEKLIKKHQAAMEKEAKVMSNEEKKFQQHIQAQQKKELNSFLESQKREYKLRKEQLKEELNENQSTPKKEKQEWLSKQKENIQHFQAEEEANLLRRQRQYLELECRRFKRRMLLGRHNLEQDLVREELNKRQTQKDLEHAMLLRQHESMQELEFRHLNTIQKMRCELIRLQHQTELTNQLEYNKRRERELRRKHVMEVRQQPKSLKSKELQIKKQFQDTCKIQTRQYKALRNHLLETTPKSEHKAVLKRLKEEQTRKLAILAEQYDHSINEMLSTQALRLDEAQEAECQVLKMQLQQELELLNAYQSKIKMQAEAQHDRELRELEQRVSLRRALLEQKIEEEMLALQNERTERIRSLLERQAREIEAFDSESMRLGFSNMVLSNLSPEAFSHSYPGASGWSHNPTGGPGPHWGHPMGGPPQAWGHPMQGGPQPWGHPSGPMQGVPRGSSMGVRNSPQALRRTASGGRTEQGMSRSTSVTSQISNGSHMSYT

[6] = target: Met(M1268T)(h) (Homo sapiens, UniProt P08581, M1250T)
[7] = target: KDR(h) (Homo sapiens, UniProt P35968)
Sequence of KDR(h) (P35968 20-1356): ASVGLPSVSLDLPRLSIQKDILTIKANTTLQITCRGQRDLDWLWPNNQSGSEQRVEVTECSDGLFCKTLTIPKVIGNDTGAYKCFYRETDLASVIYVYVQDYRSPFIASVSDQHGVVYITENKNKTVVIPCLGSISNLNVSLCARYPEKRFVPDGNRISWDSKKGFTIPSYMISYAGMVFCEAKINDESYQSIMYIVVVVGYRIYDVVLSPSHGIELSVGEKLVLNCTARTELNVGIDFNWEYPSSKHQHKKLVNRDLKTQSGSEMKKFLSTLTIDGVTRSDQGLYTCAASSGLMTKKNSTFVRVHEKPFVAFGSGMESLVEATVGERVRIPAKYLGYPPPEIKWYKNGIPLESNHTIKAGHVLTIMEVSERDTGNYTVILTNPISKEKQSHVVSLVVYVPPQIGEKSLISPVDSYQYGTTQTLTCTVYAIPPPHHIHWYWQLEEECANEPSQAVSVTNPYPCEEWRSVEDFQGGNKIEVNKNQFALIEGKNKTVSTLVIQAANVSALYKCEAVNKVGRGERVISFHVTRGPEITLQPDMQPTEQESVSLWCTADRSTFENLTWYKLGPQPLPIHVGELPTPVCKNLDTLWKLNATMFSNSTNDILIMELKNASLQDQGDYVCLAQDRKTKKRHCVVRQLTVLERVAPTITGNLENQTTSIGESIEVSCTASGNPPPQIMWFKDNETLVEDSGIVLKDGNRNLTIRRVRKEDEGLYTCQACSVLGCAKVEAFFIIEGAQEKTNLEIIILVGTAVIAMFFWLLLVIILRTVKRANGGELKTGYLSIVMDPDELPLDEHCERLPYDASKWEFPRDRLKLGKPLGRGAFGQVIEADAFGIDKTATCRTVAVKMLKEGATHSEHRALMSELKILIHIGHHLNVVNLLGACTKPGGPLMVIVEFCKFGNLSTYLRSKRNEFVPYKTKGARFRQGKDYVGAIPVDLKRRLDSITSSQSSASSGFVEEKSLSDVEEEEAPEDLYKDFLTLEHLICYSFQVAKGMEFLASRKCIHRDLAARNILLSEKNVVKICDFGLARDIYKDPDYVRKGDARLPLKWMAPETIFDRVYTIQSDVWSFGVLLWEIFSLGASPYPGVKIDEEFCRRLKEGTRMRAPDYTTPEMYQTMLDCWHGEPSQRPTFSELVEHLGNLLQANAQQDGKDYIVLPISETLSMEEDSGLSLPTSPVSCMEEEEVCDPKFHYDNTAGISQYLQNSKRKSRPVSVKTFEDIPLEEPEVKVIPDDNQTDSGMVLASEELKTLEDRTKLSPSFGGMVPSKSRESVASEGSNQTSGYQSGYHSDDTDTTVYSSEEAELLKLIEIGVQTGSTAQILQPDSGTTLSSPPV

[8] = target: T2, DDR2(h) (Homo sapiens, UniProt Q16832)
T2 sequence (Q16832 22-855): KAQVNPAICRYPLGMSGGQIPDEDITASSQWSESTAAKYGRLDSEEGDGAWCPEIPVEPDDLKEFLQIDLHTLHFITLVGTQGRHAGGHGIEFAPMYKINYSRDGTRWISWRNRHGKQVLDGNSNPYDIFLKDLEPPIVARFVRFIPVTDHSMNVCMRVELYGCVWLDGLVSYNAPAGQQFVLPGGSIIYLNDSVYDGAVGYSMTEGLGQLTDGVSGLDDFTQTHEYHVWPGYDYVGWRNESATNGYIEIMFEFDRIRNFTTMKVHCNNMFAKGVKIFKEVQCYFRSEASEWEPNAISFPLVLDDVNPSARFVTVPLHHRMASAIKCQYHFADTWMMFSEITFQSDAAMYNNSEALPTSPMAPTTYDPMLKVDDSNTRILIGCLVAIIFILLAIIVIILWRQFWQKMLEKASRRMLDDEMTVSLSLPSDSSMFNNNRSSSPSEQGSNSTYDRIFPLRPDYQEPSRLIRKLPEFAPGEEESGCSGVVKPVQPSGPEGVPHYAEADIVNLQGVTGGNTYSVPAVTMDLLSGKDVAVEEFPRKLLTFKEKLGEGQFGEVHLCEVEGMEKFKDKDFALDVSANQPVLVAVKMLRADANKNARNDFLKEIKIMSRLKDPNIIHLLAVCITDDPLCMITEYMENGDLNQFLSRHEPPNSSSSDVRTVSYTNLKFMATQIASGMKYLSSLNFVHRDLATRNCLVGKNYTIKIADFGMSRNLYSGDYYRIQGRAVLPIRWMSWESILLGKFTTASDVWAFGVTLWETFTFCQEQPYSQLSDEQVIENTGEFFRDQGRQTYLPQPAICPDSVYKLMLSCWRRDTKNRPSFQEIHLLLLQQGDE

[9] = target: Pim-1(h) (Homo sapiens, UniProt P11309)
Sequence of Pim-1(h) (P11309 whole entry): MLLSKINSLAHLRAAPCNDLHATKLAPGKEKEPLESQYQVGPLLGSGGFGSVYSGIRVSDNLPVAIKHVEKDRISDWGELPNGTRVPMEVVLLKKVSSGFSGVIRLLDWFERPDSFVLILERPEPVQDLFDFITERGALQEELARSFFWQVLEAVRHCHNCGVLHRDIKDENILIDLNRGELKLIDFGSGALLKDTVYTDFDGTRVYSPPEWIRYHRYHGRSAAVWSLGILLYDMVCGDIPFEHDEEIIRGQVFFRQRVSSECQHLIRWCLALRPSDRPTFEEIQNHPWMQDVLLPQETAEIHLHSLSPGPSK

[10] = target: T3, SAPK3(h) (Homo sapiens, UniProt P53778)
T3 sequence (P53778 1-367): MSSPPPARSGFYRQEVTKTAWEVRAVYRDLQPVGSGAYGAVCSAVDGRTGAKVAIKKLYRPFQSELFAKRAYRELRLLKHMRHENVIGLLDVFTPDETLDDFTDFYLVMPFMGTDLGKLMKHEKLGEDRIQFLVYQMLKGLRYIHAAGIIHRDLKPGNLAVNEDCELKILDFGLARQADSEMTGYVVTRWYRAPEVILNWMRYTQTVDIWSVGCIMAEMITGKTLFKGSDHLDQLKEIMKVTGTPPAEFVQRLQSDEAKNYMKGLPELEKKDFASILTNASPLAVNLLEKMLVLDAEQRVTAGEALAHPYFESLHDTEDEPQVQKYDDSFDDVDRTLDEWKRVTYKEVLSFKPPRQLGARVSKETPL

Sequence of MAPKAP-K3(h) (Q16644 whole entry): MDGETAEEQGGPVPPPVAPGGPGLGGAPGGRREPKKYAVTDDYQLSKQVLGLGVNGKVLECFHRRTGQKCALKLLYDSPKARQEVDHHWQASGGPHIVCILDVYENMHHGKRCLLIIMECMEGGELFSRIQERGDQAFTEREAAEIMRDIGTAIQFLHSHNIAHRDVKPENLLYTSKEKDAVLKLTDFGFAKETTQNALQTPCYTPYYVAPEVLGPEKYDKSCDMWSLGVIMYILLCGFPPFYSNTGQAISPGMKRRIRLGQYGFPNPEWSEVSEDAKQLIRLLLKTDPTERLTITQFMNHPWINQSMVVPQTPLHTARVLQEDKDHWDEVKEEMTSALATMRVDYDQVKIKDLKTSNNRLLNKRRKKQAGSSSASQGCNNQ
Sequence of Rsk4(h) (Q9UK32 whole entry): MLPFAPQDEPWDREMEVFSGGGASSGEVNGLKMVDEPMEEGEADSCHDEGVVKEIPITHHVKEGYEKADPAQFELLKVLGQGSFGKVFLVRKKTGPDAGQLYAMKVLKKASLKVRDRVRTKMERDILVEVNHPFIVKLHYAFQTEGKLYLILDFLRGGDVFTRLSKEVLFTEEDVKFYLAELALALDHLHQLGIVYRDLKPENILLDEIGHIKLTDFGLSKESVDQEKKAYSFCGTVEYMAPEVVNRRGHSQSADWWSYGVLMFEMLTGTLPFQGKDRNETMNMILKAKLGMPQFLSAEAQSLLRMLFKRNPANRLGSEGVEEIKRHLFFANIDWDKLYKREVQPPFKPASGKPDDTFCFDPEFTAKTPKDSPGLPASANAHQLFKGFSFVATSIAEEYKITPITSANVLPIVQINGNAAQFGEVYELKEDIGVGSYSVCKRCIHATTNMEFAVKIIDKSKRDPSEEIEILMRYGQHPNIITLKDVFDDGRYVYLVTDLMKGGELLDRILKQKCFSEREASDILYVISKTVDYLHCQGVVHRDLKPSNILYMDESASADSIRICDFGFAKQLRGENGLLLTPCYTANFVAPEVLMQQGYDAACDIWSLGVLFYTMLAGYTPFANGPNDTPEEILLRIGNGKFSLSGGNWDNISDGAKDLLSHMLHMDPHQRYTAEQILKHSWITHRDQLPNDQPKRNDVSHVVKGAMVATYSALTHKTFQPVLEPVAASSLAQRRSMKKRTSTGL

Row | Sequence | % activity [1] | % activity [2] | % activity [3] | % activity [4] | % activity [5] | % activity [6] | % activity [7] | % activity [8] | % activity [9] | % activity [10]
1 | FAKLAARLYRKALARQLGVAA [MMI-0300] | 125% | 90% | 26% | 3% | 82% | 255% | 101% | 94% | 8% | 84%
2 | HRRIKAWLKKIKALARQLGVAA [MMI-0500] | 150% | 29% | 30% | 9% | 24% | 239% | 15% | 79% | 0% | 24%
3 | KAFAKLAARLYRKALARQLGVAA [MMI-0400] | 68% | 91% | 14% | 7% | 73% | 265% | 94% | 95% | 7% | 79%
4 | YARAAARQARAKALNRQLGVA [MMI-0200] | 139% | 125% | 32% | 39% | – | 143% | 110% | – | 18% | 97%
